Consider 1 substance from PMC6894071.

The target in test [1] is Feline CAT1/SLC7A1, endogenous in CC81-GREMG cells (feline (endogenous in CC81-GREMG)). Nature of the test: flow cytometry on cells. A general note: In flow cytometry, cells or beads pass a laser one at a time.
Test [2] deals with EGFP-tagged bovine cationic amino acid transporter 1 (CAT1)/solute carrier family 7 member 1 (SLC7A1) (bovine) (UniProt F1N5P6). Nature of the test: flow cytometry on cells.

On to “Bovine leukemia virus envelope glycoprotein (Env) on BLV particles (from UniProt P03380 34-301; P03380 302-515) (complex)”, for which, in test [1], the percent of cells bound with BLV particles (with control serum 1:10) worked out at 57% and the percent of cells bound with BLV particles (with control serum 1:50) came out at 49%. In test [2], this substance had a percent APC-EGFP double-positive cells at 1 h of 18.7% and a percent APC-EGFP double-positive cells at 2 h of 23.7%.
